Experimental data: patent CN114605536A (JIANGSU QUANXIN BIOMEDICINE CO LTD, dated 2022)

Key:
[1] = biological target: T1, 人胸腺基质淋巴细胞生成素 (Human Thymic Stromal Lymphopoietin, TSLP) (human, UniProt Q969D9 29-159); experiment: SPR, Biacore T200, 25°C, antibody captured on Protein A chip, human TSLP as analyte, 1:1 model, mean of three runs
T1 construct: also called 人TSLP; hTSLP

[2] = biological target: T1, 人胸腺基质淋巴细胞生成素 (Human Thymic Stromal …); experiment: cell-based or functional assay
食蟹猴TSLP = 食蟹猴TSLP (cynomolgus monkey (食蟹猴), UniProt A0A7N9CAT7 29-159); experiment: cell-based or functional assay
Sequence of 食蟹猴TSLP (A0A7N9CAT7 entry or part of it): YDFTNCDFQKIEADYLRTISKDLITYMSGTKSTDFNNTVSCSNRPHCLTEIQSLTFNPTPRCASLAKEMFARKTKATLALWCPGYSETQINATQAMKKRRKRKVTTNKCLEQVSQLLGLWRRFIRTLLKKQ

Row | Kd [1] | koff [1] | kon [1] | 抑制人TSLP诱导的PBMC细胞释放TARC(CCL17)活性的IC50 [2] | 抑制人TSLP诱导的SW756-STAT5-Luciferase报告基因细胞STAT5磷酸化活性的IC50 [2] | 抑制人TSLP诱导的全血释放TARC(CCL17)活性的IC50 [2] | 抑制食蟹猴TSLP诱导的SW756-STAT5-Luciferase报告基因细胞STAT5磷酸化活性的IC50 (食蟹猴TSLP) | Binder
1 | 0.0175 nM | 2.99e-05 s⁻¹ | 1.74e+06 M⁻¹ s⁻¹ | 77.1 ng/mL | 0.837 ng/mL | 0.839 ng/mL | 0.889 ng/mL | QX008N (HZD8G2-57) (antibody, V domains shown) VH: EVQLVESGGGLVQPGGSLRLSCAASGFSLSSYYMSWVRQAPGKGLEWVGFISYGGSAYHATWAQGRFTISKDNSKNTLYLQMNSLRAEDTAVYYCAREFRSMTYGAEWGIWGQGTLVTVSS VL: AYQMTQSPSSVSASVGDRVTITCQASESIYDTLAWYQQKPGKAPKLLIYSASSLASGVPSRFSGSGSGTDFTLTISSLQPEDFATYYCQQGYTMPDVDKNPFGGGTKVEIKR
2 | – | – | – | – | – | – | 1.88 ng/mL | Tezepelumab (antibody, V domains shown) VH: QMQLVESGGGVVQPGRSLRLSCAASGFTFRTYGMHWVRQAPGKGLEWVAVIWYDGSNKHYADSVKGRFTITRDNSKNTLNLQMNSLRAEDTAVYYCARAPQWELVHEAFDIWGQGTMVTVSS VL: SYVLTQPPSVSVAPGQTARITCGGNNLGSKSVHWYQQKPGQAPVLVVYDDSDRPSWIPERFSGSNSGNTATLTISRGEAGDEADYYCQVWDSSSDHVVFGGGTKLTVLG
